T1: binding of RSPO3 to LGR5 (Homo sapiens, UniProt Q9BXY4)
T1 construct: expressed in transfected cells; host or cells: HEK-293T
T1 sequence (Q9BXY4 22-272): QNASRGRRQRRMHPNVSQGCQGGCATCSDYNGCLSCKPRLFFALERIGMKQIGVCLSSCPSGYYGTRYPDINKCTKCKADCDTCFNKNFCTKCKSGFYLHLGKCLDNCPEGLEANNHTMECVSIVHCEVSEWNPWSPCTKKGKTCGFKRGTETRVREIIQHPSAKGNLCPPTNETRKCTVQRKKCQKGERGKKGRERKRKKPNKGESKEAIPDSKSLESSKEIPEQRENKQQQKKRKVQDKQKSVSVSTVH

T2: human RSPO3 (Homo sapiens, UniProt Q9BXY4)
T2 construct: purchased R&D Systems
T2 sequence (Q9BXY4 22-272): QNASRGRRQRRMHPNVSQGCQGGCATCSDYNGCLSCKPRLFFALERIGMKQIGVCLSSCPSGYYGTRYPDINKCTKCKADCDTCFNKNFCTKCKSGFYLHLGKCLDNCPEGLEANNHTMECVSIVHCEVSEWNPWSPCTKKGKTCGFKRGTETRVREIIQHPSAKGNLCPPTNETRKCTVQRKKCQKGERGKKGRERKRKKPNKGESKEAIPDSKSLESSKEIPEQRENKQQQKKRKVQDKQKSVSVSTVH


Experiments:
[1] = test system: gene sets characteristic of normal stem cells or cancer stem cells; experiment: Microarray gene set enrichment analysis of treated OMP-LU102 tumors; type: in vivo, NOD-SCID mice; details: RNA from OMP-LU102 tumors after treatment, FIG. 11B
Experimental: RNA was prepared from tumors from each of the four experimental groups following the treatment. Gene expression was characterized by microarray analysis.

[2] = test system: OMP-LU25 lung tumor; experiment: OMP-LU25 lung tumor xenograft growth; type: in vivo, NOD/SCID mice; details: 25 mg/kg once a week intraperitoneal, vs control antibody, FIG. 7B
Experimental: In a study with a second lung tumor, dissociated OMP-LU25 lung tumor cells (5×10^4 cells) were injected into 6-8 week old NOD/SCID mice. Tumors were allowed to grow for 48 days until they reached an average volume of 110 mm^3. The mice were randomized (n=9 per group) and treated with anti-RSPO3 antibody 131R002 or a control antibody. […] Data are expressed as mean±S.E.M.
OMP-LU25 tumor cells (5×10^4) were injected into NOD-SCID mice. Tumors were allowed to grow for 33 days until they reached an average volume of 120 mm^3. Tumor-bearing mice were randomized into 4 groups (n=9 per group). Tumor-bearing mice were treated with either control antibody, anti-RSPO3 antibody 131R008, paclitaxel, or the combination of anti-RSPO3 antibody 131R008 and paclitaxel. Antibodies were dosed weekly at 20 mg/kg. Paclitaxel was dosed weekly at 15 mg/kg.

[3] = test system: OMP-LU102 lung tumor; experiment: OMP-LU102 NSCLC xenograft growth; type: in vivo, NOD-SCID mice; details: antibody 25 mg/kg once a week, carboplatin 50 mg/kg once a week, FIG. 11A
Experimental: OMP-LU102 is a patient-derived non-small cell lung cancer (NSCLC) xenograft that was selected for testing based on a high level of RSPO3 expression in microarray data. OMP-LU102 lung tumor cells (1×10^5) were injected into NOD-SCID mice. […] Carboplatin was dosed at 50 mg/kg once a week.

[4] = test system: RSPO3-induced β-catenin signaling; experiment: TOPflash 6xTCF-luciferase reporter assay in HEK-293 cells with WNT3a and RSPO3; type: cell-based, human
Experimental: HEK-293 cells were transfected with a 6×TCF-luciferase reporter vector (TOPflash, Millipore, Billerica, Mass.). After 24-48 hrs, the transfected HEK-293 cells were incubated with a combination of WNT3a (5 ng/ml) and human RSPO3 (10 ng/ml, R&D BioSystems, Minneapolis, Minn.) in the presence of anti-RSPO3 antibodies 131R002 and 131R003. Antibodies 131R002 and 131R003 were added to the cells in 4-fold serial dilutions from 20 μg/ml to 0.02 μg/ml. As controls, cells were incubated with a combination of WNT3a and RSPO3, WNT3a only, RSPO3 only, or with no addition. The cells were incubated for 16 hours and luciferase activity was measured using Steady-Glo® Luciferase Assay System according to the manufacturer's instructions (Promega, Madison, Wis.).
HEK-293 cells were transfected with a 6×TCF-luciferase reporter vector (TOPflash, Millipore, Billerica, Mass.). After 24-48 hrs, the transfected HEK-293 cells were incubated with a combination of WNT3a and human RSPO3 in the presence of anti-RSPO3 antibodies 131R003, 131R003 CDR1 variant and 131R003 CDR3 variant. 131R003, 131R003 CDR1 variant, and 131R003 CDR3 variant were added to the cells in 5-fold serial dilutions from 20 μg/ml to 0.006 μg/ml. As controls, cells were incubated with a combination of WNT3a and RSPO3, WNT3a only, RSPO3 only, a control antibody, or with no addition. The cells were incubated for 16 hours and luciferase activity was measured using Steady-Glo® Luciferase Assay System according to the manufacturer's instructions (Promega, Madison, Wis.).
HEK-293 cells were transfected with a 6×TCF-luciferase reporter vector (TOPflash, Millipore, Billerica, Mass.). After 24-48 hrs, the transfected HEK-293 cells were incubated with a combination of WNT3a conditioned medium (5 ng/ml) and human RSPO3 (10 ng/ml, R&D BioSystems) in the presence of anti-RSPO3 antibodies 131R002, 131R006B, or 131R007. Antibodies 131R002, 131R006 or 131R007 were added to the cells in 5-fold serial dilutions from 20 μg/ml to 0.0064 μg/ml. As controls, cells were incubated with WNT3a conditioned medium alone, a combination of WNT3a conditioned medium and human RSPO3, or with no addition to cells. The cells were incubated for 16 hours and luciferase activity was measured using Steady-Glo® Luciferase Assay System according to the manufacturer's instructions (Promega, Madison, Wis.).
HEK-293 cells were transfected with a 6×TCF-luciferase reporter vector (TOPflash, Millipore, Billerica, Mass.). […] The cells were incubated for 16 hours and luciferase activity was measured using Steady-Glo® Luciferase Assay System according to the manufacturer's instructions (Promega, Madison, Wis.).

[5] = test system: OMP-LU45 non-small cell lung tumors; experiment: OMP-LU45 lung tumor xenograft growth; type: in vivo, NOD/SCID mice; details: 25 mg/kg once a week intraperitoneal, vs control antibody, FIG. 7A
Experimental: In OMP-LU45 non-small cell lung tumors, it has been observed that CD201^+ cells are more tumorigenic than CD201^− cells. […] Dissociated and sorted OMP-LU45 CD44^+CD201^+ lung tumor cells (5×10^4 cells) were injected into 6-8 week old NOD/SCID mice. Tumors were allowed to grow for 38 days until they reached an average volume of 140 mm^3. The mice were randomized (n=10 per group) and treated with anti-RSPO3 antibody 131R002 or a control antibody. […] Data are expressed as mean±S.E.M.

[6] = molecular target: T1, binding of RSPO3 to LGR5; experiment: FACS inhibition of RSPO3-biotin binding to LGR5-expressing HEK-293T cells; details: PE-streptavidin, flow cytometry, FIG. 9
Experimental: HEK-293T cells were transfected with a cDNA expression vector that encoded the extracellular domain of human LGR5 (FLAG-LGR5-CD4TM-GFP). Transfected cells were incubated with recombinant RSPO3-biotin fusion protein in the presence of anti-RSPO3 antibodies 131R006B or 131R007. Cells were incubated without antibody as a control. Cells were washed in PBS and binding of RSPO3 to LGR5-expressing transfected cells was determined by addition of PE-conjugated streptavidin and analysis by flow cytometry.

[7] = molecular target: T2, human RSPO3; experiment: Biacore 2000 affinity, antibody captured by anti-human IgG, RSPO3 injected (Example 10); type: binding; details: human RSPO3 300 nM to 37.5 nM over captured antibody, Table 4
Experimental: The method used was different than described in Example 3. A goat anti-human IgG antibody was coupled to a carboxymethyl-dextran (CM5) SPR chip using standard amine-based chemistry (NHS/EDC) and blocked with ethanolamine. Antibodies (purified antibody or culture supernatant) were diluted to a concentration of 10 μg/ml in HBS-P-BSA (0.01M HEPES pH7.4, 0.15M NaCl, 0.005% v/v Polysorbate 20, 100 ug/ml BSA) and captured onto the chip via the anti-human IgG antibody. Human RSPO3 (R&D Systems) was serially diluted 2-fold from 300 nM to 37.5 nM in HBS-P-BSA and injected sequentially over the captured anti-RSPO3 antibodies. RSPO3 association and dissociation was measured at each concentration. After each antigen injection 5 μl of 100 mM H3P04 was injected to remove the antigen-antibody complex and a subsequent injection performed. Kinetic data were collected over time and were fit using the simultaneous global fit equation to yield affinity constants (KD values) for each antibody (Table 4).

| Kd [7] | Molecule | expression of gene sets characteristic of normal stem cells or cancer stem cells [1] | OMP-LU25 lung tumor growth [2] | OMP-LU102 lung tumor growth [3] | RSPO3-induced β-catenin signaling ([4]; WNT3a 5 ng/ml + RSPO3 10 ng/ml, antibody 20 to 0.02 μg/ml, FIG. 3) | OMP-LU45 lung tumor growth [5] | blocking binding of RSPO3 to LGR5-expressing cells [6] | ability to inhibit β-catenin activity compared with 131R002 ([4]; WNT3a conditioned medium 5 ng/ml + human RSPO3 10 ng/ml, FIG. 8) |
| --- | --- | --- | --- | --- | --- | --- | --- | --- |
| – | 131R002: anti-RSPO3 antibody from a mammalian cell antibody library; heavy chain variable region SEQ ID NO:15, light chain variable region SEQ ID NO:17 (antibody, V domains shown, 131R002 Heavy chain variable region; 131R002/131R003 Light chain variable region) VH: QVQLQESGPELVKPGASVKISCKASGYTFTDYSIHWVKQNHGKSLDWIGYIYPSNGDSGYNQKFKNRATLTVDTSSSTAYLEVRRLTFEDSAVYYCATYFANYFDYWGQGTTLTVSSAST VL: DIVLTQSPASLAVSLGQRATISCKASQSVDYDGDSYMNWYQQKPGQPPKLLIYAASNLESGIPARFSGSGSGTDFTLNIHPVEEEDAATYYCQQSNEDPLTFGAGTKLELKR | inhibited the expression of various gene sets characteristic of normal stem cells or cancer stem cells | inhibited growth | inhibited OMP-LU102 lung tumor growth as a single agent | reduced RSPO3-induced β-catenin signaling in a dose-dependent manner | inhibited growth | – | – |
| 0.654 nM | h131R007: humanized 131R003 variant, IgG2; heavy chain variable region SEQ ID NO:44, light chain variable region SEQ ID NO:72 (antibody, V domains shown, Humanized 131R005/131R007/131R008/ 131R010/131R011 Heavy chain variable region; Humanized 131R005/131R007/131R008 Light chain variable region) VH: QVQLVQSGAEVKKPGASVKVSCKASGYTFTDYSIHWVRQAPGQGLEWIGYIYPSNGDSGYNQKFKNRVTMTRDTSTSTAYMELSRLRSEDTAVYYCATYFANNFDYWGQGTTLTVSS VL: DIVLTQSPASLAVSLGQRATITCKASQSVDYDGDSYMNWYQQKPGQPPKLLIYAASNLESGIPARFSGSGSGTDFTLTINPVEAEDVATYYCQQSNEDPLTFGAGTKLELKR | – | – | – | – | – | highly effective in blocking binding of RSPO3 to LGR5-expressing cells | greater ability to inhibit β-catenin activity than antibody 131R002 |

Source: patent publication US9598497B2, “RSPO3 binding agents and uses thereof” (OncoMed Pharmaceuticals, Inc., priority 2012, dated 2017)
